Test results taken from the supplement of paper PMC7877785.
± gives the uncertainty stated by the source.

Assay: self-splicing fitness, log relative to wild type (ln ratio); higher = more splicing; Tetrahymena group I intron in knt gene, E. coli kanamycin selection, DiMSum; sequences stand for … in CUCUCU…GGAGGGAAAAGUUAUCAGGCAUGCACCUGGUAGCUAGUCUUUAAACCAAUAGAUUGCAUCGGUUUAAAAGGCAAGACCGUCAAAUUGCGGGAAAGGGGUCAACAGCCGUUCAGUACCAAGUCUCAGGGGAAACUUUGAGAUGGCCUUGCAAAGGGUAUGGUAAUAAGCUGACGGACAUGGUCCUAACCACGCAGCCAAGUCCUAAGUCAACAGAUCUUCUGUUGAUAUGGAUGCAGUUCACAGACUAAAUGUCGGUCGGGGAAGAUGUAUUCUUCUCAUAAGAUAUAGUCGGACCUCUCCUUAAUGGGAGCUAGCGGAUGAAGUGAUGCAACACUGGAGCCGCUGGGAACUAAUUUGUAUGCGAAAGUAUAUUGAUUAGUUUUGGAGUACUCGUGGUCG
Outline: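 A randomised library covering all eight P1ex-region intron nucleotides was built with the intron in the knt kanamycin-resistance gene on pET-22b(+) and held in E. coli BL21(DE3). Cells were grown overnight at 37°C or 30°C on LB agar, with or without 25 μg/mL kanamycin, plus 100 μg/mL carbenicillin, 50 μM IPTG and 0.2% rhamnose, and pooled colonies were amplicon-sequenced on an Illumina HiSeq 2500. DiMSum fitness is the error-weighted combination of wild-type-normalised replicate fold changes, kanamycin versus none.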

Sequence	self-splicing fitness (ln) (30 °C)	self-splicing fitness (ln) (37 °C)
AAUGAGCAAUAUUACGCUCA	-1.91 ± 0.42	-0.648 ± 0.38
AAUGAGCAAUAUUACGGGGA	-2.54 ± 0.17	-2.22 ± 0.25
AAUGAGCAAUAUUACGGUAA	-1.61 ± 0.34	-2.24 ± 0.4
AAUGAGCAAUAUUACGGUGC	-3.37 ± 0.23	-3.03 ± 0.27
AAUGAGCAAUAUUACGGUUC	-2.91 ± 0.15	-2.48 ± 0.18
AAUGAGCAAUAUUACGUAUA	-3.43 ± 0.17	-1.93 ± 0.13
AAUGAGCAAUAUUACGUGAA	-2.17 ± 0.16	-1.8 ± 0.27
AAUGAGCAAUAUUACGUGAC	-3.08 ± 0.37	-1.25 ± 0.19
AAUGAGCAAUAUUACGUGGC	-2.82 ± 0.15	-2.7 ± 0.2
AAUGAGCAAUAUUACGUUAU	-4.01 ± 0.21	-3.73 ± 0.24
AAUUAGCAAUAUUACGAAAU	-1.2 ± 0.16	-1.09 ± 0.23
AAUUAGCAAUAUUACGACAG	-1.72 ± 0.32	-0.992 ± 0.25
AAUUAGCAAUAUUACGAGCC		-1.57 ± 0.47
AAUUAGCAAUAUUACGAGGA	-2.64 ± 0.26	-0.851 ± 0.18
AAUUAGCAAUAUUACGAGUG	-1.08 ± 0.081	-0.525 ± 0.11
AAUUAGCAAUAUUACGAUCA	-0.335 ± 0.28	-0.16 ± 0.22
AAUUAGCAAUAUUACGCCGU	-0.928 ± 0.23	-0.523 ± 0.26
AAUUAGCAAUAUUACGCGUG	-0.374 ± 0.066	-0.101 ± 0.083
AAUUAGCAAUAUUACGCUAG	-2.38 ± 0.13	-1.06 ± 0.13
AAUUAGCAAUAUUACGCUCG	0.0366 ± 0.13	0.217 ± 0.16
AAUUAGCAAUAUUACGCUUC	-2.91 ± 0.39	-3.71 ± 0.39

Sequence	self-splicing fitness (ln) (30 °C)	self-splicing fitness (ln) (37 °C)
AAUUAGCAAUAUUACGGAAG		-0.915 ± 0.42
AAUUAGCAAUAUUACGGGCU	-2.04 ± 0.23	-1.64 ± 0.26
AAUUAGCAAUAUUACGGGUC	-1.55 ± 0.24	-0.486 ± 0.24
AAUUAGCAAUAUUACGGGUG	-1.04 ± 0.066	-0.54 ± 0.083
AAUUAGCAAUAUUACGGUAG	-4.2 ± 0.39	-1.66 ± 0.24
AAUUAGCAAUAUUACGGUGC	-2.19 ± 0.26	-3 ± 0.43
AAUUAGCAAUAUUACGUACC	-0.499 ± 0.21	-0.307 ± 0.29
AAUUAGCAAUAUUACGUAGA	-1.75 ± 0.14	-2.03 ± 0.17
AAUUAGCAAUAUUACGUCGA	-1.22 ± 0.14	-0.488 ± 0.15
AAUUAGCAAUAUUACGUGUU	-1.05 ± 0.11	-1.78 ± 0.13
AAUUAGCAAUAUUACGUUCA	-0.618 ± 0.1	-0.409 ± 0.12
AAUUAGCAAUAUUACGUUGC	-3.47 ± 0.46	-2.75 ± 0.38
AAUUAGCAAUAUUACGUUGU	-3.79 ± 0.15	-1.72 ± 0.15
ACAAAGCAAUAUUACGACCA	-0.633 ± 0.12	-0.407 ± 0.13
ACAAAGCAAUAUUACGACGG	-1.06 ± 0.07	-0.665 ± 0.093
ACAAAGCAAUAUUACGAGAG	-2.93 ± 0.16	-1.1 ± 0.1
ACAAAGCAAUAUUACGAGUC	-4.66 ± 0.25	-2.95 ± 0.23
ACAAAGCAAUAUUACGAUUG	-2.14 ± 0.069	-1.55 ± 0.092
ACAAAGCAAUAUUACGCAUG	-1.82 ± 0.075	-0.868 ± 0.084
ACAAAGCAAUAUUACGCCGU	-2.44 ± 0.16	-1.41 ± 0.21
ACAAAGCAAUAUUACGCCUC	-2.8 ± 0.28	-2.2 ± 0.3
